Laboratory results from paper PMC4513881.

Assays:
[1] = biological target: T1, DCL1-AB (both dsRBDs) (Arabidopsis thaliana) (UniProt Q9SP32); experiment: fluorescence anisotropy; details: FA: 10 mM phosphate pH 7.0, 50 nM labeled nucleic acid, temperature not stated; CD: 10 mM phosphate pH 7; NMR complex: 20 mM phosphate pH 7.0, 5 mM TCEP
T1 sequence: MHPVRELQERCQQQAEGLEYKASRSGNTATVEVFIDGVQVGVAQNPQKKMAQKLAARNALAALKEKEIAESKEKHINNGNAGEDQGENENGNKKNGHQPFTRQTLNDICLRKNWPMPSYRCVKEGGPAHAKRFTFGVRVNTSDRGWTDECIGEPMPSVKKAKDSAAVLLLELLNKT

[2] = biological target: T2, DCL1-A (first dsRBD) (Arabidopsis thaliana) (UniProt Q9SP32); experiment: fluorescence anisotropy; details: FA: 10 mM phosphate pH 7.0, 50 nM labeled nucleic acid, temperature not stated; CD: 10 mM phosphate pH 7; NMR complex: 20 mM phosphate pH 7.0, 5 mM TCEP
T2 sequence: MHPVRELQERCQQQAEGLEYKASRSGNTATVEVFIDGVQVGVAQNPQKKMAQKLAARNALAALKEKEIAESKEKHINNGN

Substance	Kd [1]	Kd [2]
dsDNA	680 nM	860 nM
miR172a stem-loop (miRNA/miRNA* region)	67 nM	723 nM
